Positions count from the first letter of the chain named. Numbers in names are those of the source.
Legend:
[1] = molecular target: T1, human CD3ε (human, UniProt P07766 23-207); test: flow cytometry, Jurkat cells
T1 construct: whole, on cells; Present on cells as part of the CD3/TCR complex; also called CD3 epsilon

[2] = molecular target: T2, shed soluble CEACAM5 (sCEA) (human, UniProt P06731 35-685, limits assumed); test: cell-based or functional assay
T2 sequence (looked up): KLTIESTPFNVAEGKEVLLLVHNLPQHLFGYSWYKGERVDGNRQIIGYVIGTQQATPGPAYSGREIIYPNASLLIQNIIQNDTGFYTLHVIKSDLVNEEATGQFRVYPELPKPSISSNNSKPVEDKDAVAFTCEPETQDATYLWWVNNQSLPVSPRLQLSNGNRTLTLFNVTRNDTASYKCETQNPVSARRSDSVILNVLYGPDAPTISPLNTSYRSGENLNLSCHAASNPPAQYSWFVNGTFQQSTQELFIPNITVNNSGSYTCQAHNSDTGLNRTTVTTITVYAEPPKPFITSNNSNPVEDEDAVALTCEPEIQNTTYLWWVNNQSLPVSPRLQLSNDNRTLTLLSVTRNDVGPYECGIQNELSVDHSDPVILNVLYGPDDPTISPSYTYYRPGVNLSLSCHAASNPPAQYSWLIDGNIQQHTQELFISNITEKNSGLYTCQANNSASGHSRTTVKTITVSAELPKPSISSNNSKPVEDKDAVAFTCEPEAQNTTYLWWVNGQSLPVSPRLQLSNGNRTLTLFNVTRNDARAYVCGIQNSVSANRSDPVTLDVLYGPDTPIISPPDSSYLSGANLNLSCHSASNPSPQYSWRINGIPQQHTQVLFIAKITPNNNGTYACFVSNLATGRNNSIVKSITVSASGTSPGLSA

[3] = molecular target: T3, human CEACAM5 (carcinoembryonic antigen, CEA), cell surface (human, UniProt P06731 35-685); test: cell-based or functional assay
T3 sequence (looked up): T2 sequence (looked up)

[4] = molecular target: T1, human CD3ε; test: flow cytometry, primary CD4+ and CD8+ T-cells
[5] = molecular target: T3, human CEACAM5 (carcinoembryonic …); test: flow cytometry, CEA positive cells
[6] = molecular target: T3, human CEACAM5 (carcinoembryonic …); test: flow cytometry, MKN-45 cells
Excerpt: Examples of cells that can be used include CEACAM5-positive cell lines such as the gastric adenocarcinoma cell line MKN45 (expressing 155′000 CEACAM5 molecules per cell), or the pancreatic adenocarcinoma cell line HPAF-II (expressing 108′000 CEACAM5 molecules per cell) or the colorectal adenocarcinoma cell line LS174T (expressing 26′000 CEACAM5 molecules per cell) and CEACAM5-negative cell lines, such as the lung carcinoma cell line A549 and the MKN45 CEACAM5-knock out cell line generated by CRISPR-CAS9 methodology. Cell staining and binding assessment can be performed as described above. Binding of the bsAb of the invention at 200 nM, 1000 nM and 5000 nM is 40% and higher compared to binding of TCB2014 (see Table 4 and also FIGS. 11 and 14).

[7] = molecular target: T4, biotinylated recombinant human CEACAM5 protein (human, UniProt P06731 35-685, biotinylated in vitro with biotin ligase (Avitag)); test: competition ELISA with reference antibodies
T4 construct: extracellular domain; also called recombinant CEA; CEA ECD; not shown: C-terminal Avitag and either a hexa-histidine tag, a human Fc region or a mouse Fc region; which one was used in the ELI
T4 sequence (looked up): T2 sequence (looked up)

T1 sequence (P07766 23-207): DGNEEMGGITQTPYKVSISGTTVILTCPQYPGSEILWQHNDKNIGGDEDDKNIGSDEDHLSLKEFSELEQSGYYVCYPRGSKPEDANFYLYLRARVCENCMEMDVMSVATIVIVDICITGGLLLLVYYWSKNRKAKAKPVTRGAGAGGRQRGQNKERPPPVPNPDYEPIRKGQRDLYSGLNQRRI

B1: AB1 L3-1/D (bispecific antibody, human IgG1, kappa, lambda, L234A L235A)
heavy: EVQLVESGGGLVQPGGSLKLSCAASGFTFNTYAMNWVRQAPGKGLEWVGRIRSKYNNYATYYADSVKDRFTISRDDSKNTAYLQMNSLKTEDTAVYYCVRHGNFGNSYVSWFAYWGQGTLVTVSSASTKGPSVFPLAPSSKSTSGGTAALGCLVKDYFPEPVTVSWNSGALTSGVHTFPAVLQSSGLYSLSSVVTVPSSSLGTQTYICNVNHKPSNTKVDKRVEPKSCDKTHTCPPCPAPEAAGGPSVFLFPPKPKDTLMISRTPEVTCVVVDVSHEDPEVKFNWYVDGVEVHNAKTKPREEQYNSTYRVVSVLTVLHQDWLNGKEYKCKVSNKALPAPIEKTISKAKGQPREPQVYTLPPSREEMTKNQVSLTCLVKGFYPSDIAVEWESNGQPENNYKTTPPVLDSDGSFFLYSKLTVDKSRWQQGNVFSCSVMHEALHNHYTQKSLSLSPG
light 1: EIVLTQSPATLSLSPGERATLSCRASQSVNSNLNWYQQKPGQAPRLLIYHGSNRATGIPARFSGSGSGTDFTLTISSLEPEDFAVYYCQQFDLRHEHNTFGQGTKVEIKRTVAAPSVFIFPPSDEQLKSGTASVVCLLNNFYPREAKVQWKVDNALQSGNSQESVTEQDSKDSTYSLSSTLTLSKADYEKHKVYACEVTHQGLSSPVTKSFNRGEC
light 2: QTVVTQEPSLTVSPGGTVTLTCRSSTGAVTTSNYANWFQQKPGQAPRGLIGGTNKRAPGTPARFSGSLLGGKAALTLSGAQPEDEAEYYCALWYKQRWVFGGGTKLTVLGQPKAAPSVTLFPPSSEELQANKATLVCLISDFYPGAVTVAWKADSSPVKAGVETTTPSKQSNNKYAASSYLSLTPEQWKSHRSYSCQVTHEGSTVEKTVAPTECS
notes: KL CEAxCD3 bispecific antibody, hIgG1 L234A+L235A
binding result [1]: binds

B2: AB66L3-1/N (bispecific antibody, human IgG1, kappa, lambda, L234A L235A)
heavy: EVQLVESGGGLVQPGGSLKLSCAASGFTFNTYAMNWVRQAPGKGLEWVGRIRSKYNNYATYYADSVKDRFTISRDDSKNTAYLQMNSLKTEDTAVYYCVRHGNFGNSYVSWFAYWGQGTLVTVSSASTKGPSVFPLAPSSKSTSGGTAALGCLVKDYFPEPVTVSWNSGALTSGVHTFPAVLQSSGLYSLSSVVTVPSSSLGTQTYICNVNHKPSNTKVDKRVEPKSCDKTHTCPPCPAPEAAGGPSVFLFPPKPKDTLMISRTPEVTCVVVDVSHEDPEVKFNWYVDGVEVHNAKTKPREEQYNSTYRVVSVLTVLHQDWLNGKEYKCKVSNKALAAPIEKTISKAKGQPREPQVYTLPPSREEMTKNQVSLTCLVKGFYPSDIAVEWESNGQPENNYKTTPPVLDSDGSFFLYSKLTVDKSRWQQGNVFSCSVMHEALHNHYTQKSLSLSPG
light 1: B1 light 1 with R24H, A25S, S28V, S31K, L93Y, R94F, H95R
light 2: B1 light 2
notes: Kappa-lambda body, lead optimization wave 2
EC50 fold change compared to no shed CEA condition, sCEA 0 µg/mL (reference) [2]: 1 fold | EC50 fold change compared to no shed CEA condition, sCEA 0.2 µg/mL [2]: 1.2 fold | EC50 fold change compared to no shed CEA condition, sCEA 1 µg/mL [2]: 2.1 fold | EC50 fold change compared to no shed CEA condition, sCEA 5 µg/mL [2]: 3.1 fold | Killing EC50, HPAFII cells (TDCC, LDH release) [3]: 200 pM | Killing EC50, LS174T cells (TDCC, LDH release) [3]: 220 pM | Killing EC50, MKN45 cells (TDCC, LDH release) [3]: 50 pM | binding result [4]: binds | binding higher than TCB2014 (at 200 nM) [5]: ≥ 40% | EC50 [6]: 24300 pM | Top MFI value [6]: 759000 MFI | binding higher than TCB2014 (at 200 nM, 1000 nM and 5000 nM) [6]: ≥ 40%

B3: AB60L3-1/N (bispecific antibody, human IgG1, kappa, lambda, L234A L235A)
heavy: B2 heavy
light 1: B1 light 1 with S28T, S31A, H50Y, G51A, L93Y, R94H, H95N
light 2: B1 light 2
notes: as for B2
EC50 fold change compared to no shed CEA condition, sCEA 0 µg/mL (reference) [2]: 1 fold | EC50 fold change compared to no shed CEA condition, sCEA 0.2 µg/mL [2]: 0.9 fold | EC50 fold change compared to no shed CEA condition, sCEA 1 µg/mL [2]: 0.8 fold | EC50 fold change compared to no shed CEA condition, sCEA 5 µg/mL [2]: 1.3 fold | Killing EC50, HPAFII cells (TDCC, LDH release) [3]: 280 pM | Killing EC50, LS174T cells (TDCC, LDH release) [3]: 210 pM | Killing EC50, MKN45 cells (TDCC, LDH release) [3]: 130 pM | binding result [4]: binds | binding higher than TCB2014 (at 200 nM) [5]: ≥ 40% | EC50 [6]: 64100 pM | Top MFI value [6]: 989000 MFI | binding higher than TCB2014 (at 200 nM, 1000 nM and 5000 nM) [6]: ≥ 40%

B4: anti-CEA antibody C11 (antibody, human IgG1, kappa, V domains shown)
VH: EVQLVESGGGLVQPGGSLKLSCAASGFTFNTYAMNWVRQAPGKGLEWVGRIRSKYNNYATYYADSVKDRFTISRDDSKNTAYLQMNSLKTEDTAVYYCVRHGNFGNSYVSWFAYWGQGTLVTVSS
VL: DIQMTQSPSTLSASVGDRVTITCRASQLISNGLYWYQQKPGKAPKLLIYDASILESGVPSRFSGSGSGTEFTLTISSLQPDDFATYYCQQRLSWPLTFGQGTKVEIKR
notes: Bivalent monoclonal antibody; also called C11 mAb
binding result [7]: binds

Reference: patent US20230136228A1 (LAMKAP BIO ALPHA, published 2023)
